In this assay the target is T1, sodium-dependent phosphate transport protein 2b (NaPi2b, SLC34A2), human, endogenous (human, UniProt O95436 1-690).
T1 construct: whole, on cells; Naturally expressed, N-glycosylated membrane protein of human cancer cell lines (OVCAR-3, SK-RC-18 and others) and tissues; used on intact cells (MHA, flow cytometry), in cell or tissue lysates (Western blot, immunoprecipitation) and in tissue sections; also called MX35 antigen; NaPi2b/MX35
T1 sequence (looked up): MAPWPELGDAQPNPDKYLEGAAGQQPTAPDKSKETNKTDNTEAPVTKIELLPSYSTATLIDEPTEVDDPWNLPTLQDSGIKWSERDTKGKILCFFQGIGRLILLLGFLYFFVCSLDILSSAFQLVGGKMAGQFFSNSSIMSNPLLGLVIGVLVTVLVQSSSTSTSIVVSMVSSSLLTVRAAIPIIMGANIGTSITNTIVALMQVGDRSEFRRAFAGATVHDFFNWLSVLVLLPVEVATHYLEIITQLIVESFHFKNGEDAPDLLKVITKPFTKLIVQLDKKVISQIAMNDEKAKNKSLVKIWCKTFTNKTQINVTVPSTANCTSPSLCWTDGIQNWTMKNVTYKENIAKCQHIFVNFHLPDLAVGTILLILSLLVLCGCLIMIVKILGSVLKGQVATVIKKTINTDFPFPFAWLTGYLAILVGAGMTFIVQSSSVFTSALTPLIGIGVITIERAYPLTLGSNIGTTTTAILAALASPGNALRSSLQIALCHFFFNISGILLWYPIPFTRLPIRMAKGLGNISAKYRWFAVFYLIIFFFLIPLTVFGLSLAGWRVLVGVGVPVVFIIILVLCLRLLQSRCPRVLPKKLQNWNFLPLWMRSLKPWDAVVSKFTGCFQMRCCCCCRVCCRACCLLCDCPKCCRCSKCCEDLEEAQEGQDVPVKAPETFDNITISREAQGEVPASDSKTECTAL
The assay can be described thus: flow cytometry on SK-RC-18 cells, 20 ug/ml antibody. Here is the method: The binding efficacy of humanized MX35 antibody, synthesized and purified as described above, was compared with the murine version of the MX35 antibody, using fluorescein isothiocyanate—FITC—marker to assess the specific binding to different cells lines in flow cytometry. The cell lines listed in TABLE 4 were trypsinized, adjusted to a concentration of 2.5×10⁵ cells and distributed in 1.5 mL test tubes. After centrifugation the pellet was resuspended in 100 uL of primary antibody (either murine MX35, humanized MX35, hu3S193 or Zenapax®) diluted in the same culture medium used to cultivate the cells in the concentration of 20 μg/ml. In the case of controls “cells only” and FITC-conjugates, the cells were resuspended in 100 μL of medium culture. The mixtures were incubated for 1 h at 4° C. and then washed twice with 200 μL of phosphate buffered saline. The cells were resuspended in 100 μL of secondary antibody-FITC conjugated, either murine or human depending on the MX35 antibody version used. The control “cells only” tube received medium culture only. […] Staining of the cells with the fluorescent probes was measured in a fluid stream in the flow cytometry Guava® ExpressPro (Guava EasyCyte Mini System). For each individual experiment 10,000 events were acquired and counted.

B1: humanized MX35 (huMX35) monoclonal antibody (antibody, V domains shown)
VH: QVQLVQSGAEVVKPGASVKMSCKASGYTFTGYNIHWVKQAPGQGLEWIGAIYPGNGDTSYKQKFRGRATLTADTSTSTVYMELSSLRSEDSAVYYCARGETARATFAYWGQGTLVTVSS
VL: DIQMTQSPSSLSASVGDRVTITCSASQDIGNFLNWYQQKPGKTVKVLIYYTSSLYSGVPSRFSGSGSGTDYTLTISSLQPEDFATYYCQQYSKLPLTFGQGTKLELKR
notes: Produced in Per.C6 cells, protein A purified; also called Human MX35; humanized MX35 antibody
For B1, the binding result is “binds”.

The values are drawn from patent publication US20140193417A1 (LUDWIG INSTITUTE FOR CANCER RESEARCH, published 2014).
